T1: IL-8 (Homo sapiens, UniProt P10145)
T1 sequence (P10145 21-99): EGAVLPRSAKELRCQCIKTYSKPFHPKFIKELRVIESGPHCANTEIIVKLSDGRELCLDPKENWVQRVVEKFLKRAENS

B1: Cxcl14: chemokine, approximately 9.5 kD secreted protein; tested by re-expression in MOE/E6E7 tumor cells (clones 8 and 16) (protein, UniProt Q9WUQ5 23-99, looked up)
C-X-C motif chemokine 14: SKCKCSRKGPKIRYSDVKKLEMKPKYPHCEEKMVIVTTKSMSRYRGQEHCLHPKLQSTKRFIKWYNAWNEKRRVYEE

How the values were obtained:
MDSCs = settings: without any effect on B and T cells, NK cells, or macrophages; cited from earlier work
MOE/E6E7 cells [1] = test: Tumor growth and survival after injection of MOE/E6E7 cells expressing Cxcl14 into wildtype B6 mice; format: in vivo, mouse; settings: wildtype B6 mice injected with MOE/E6E7 cells expressing Cxcl14
Experimental: (§1) Two MOE/E6E7 cell clones expressing Cxcl14 (clones 8 and 16) and one vector containing MOE/E6E7 cell clone were injected into the rear right flank of wildtype (A & B) and Rag1−/− (C & D) B6 mice (n=10, each group of wildtype; n=7, each group of Rag1−/). (A & C) Tumor growth was determined every week by the formula: volume=(width) 2×length. Survival rates were analyzed using a Kaplan-Meier estimator. (B & D) Time-to-event was determined for each group (vector only, Cxcl14-clone 8, Cxcl14-clone 16) with the event being tumor burden larger than 2,500 mm3. Deaths not associated with tumor were censored. P-values were determined by the Log-rank test.
(§2) CXCL14 is an evolutionary-conserved chemokine showing 98% homology between human CXCL14 and murine Cxcl14. […] To characterize immune cell infiltration regulated by Cxcl14 expression, the inventors analyzed various immune cells in tumor tissue, tumor draining lymph node (TDLN), and in spleen harvested from the wildtype B6 mice at 21 days after injection with a control or with Cxcl14 expressing MOE/E6E7 cells. […]
(§3) To determine whether CXCL14 affects tumor growth in vivo, the inventors utilized an HNSCC mouse model with MOE/E6E7 cells that form tumors in immunocompetent syngeneic mice. […] Next, the inventors determined whether CXCL14 directly induces chemotaxis of CD8^+ T and NK cells using the Transwell system and splenocytes isolated from B6 mice.

[2] = system: splenocytes isolated from B6 mice; test: In vitro migration assay using the Transwell system; format: cell-based, mouse
Experimental: MOE cells with Cxcl14 or vector were cultured on the bottom chamber of a Transwell. Splenocytes were added to the upper chamber. After 12 hr incubation, migrated splenocytes to the bottom chamber were collected and analyzed by flow cytometry.
as §2, with “murine Cxcl14. To determine whether CXCL14 affects tumor growth in vivo, the inventors studied mouse oropharyngeal epithelial cells (MOE/E6E7) that form tumors in immunocompetent syngeneic C57BL/6 (B6) mice. […] To test tumor suppressor functions of CXCL14, the inventors established MOE/E6E7 cell lines that re-expressed their physiological levels of” for “murine”
as §3

IL-8 = target: T1, IL-8; settings: another study; cited from earlier work
MOE/E6E7 cells [3] = test: Tumor growth and survival after injection of MOE/E6E7 cells expressing Cxcl14 into Rag1-/- B6 mice; format: in vivo, mouse
Experimental: as §1, §2, §3

[4] = system: CD8+ T, NK and Treg cells; test: Immune cell populations by flow cytometry in wildtype B6 mice bearing Cxcl14-expressing MOE/E6E7 cells; format: in vivo, mouse
Experimental: MOE/E6E7 cells with Cxcl14 (clones #8 and #16) or vector were injected into the right flank of B6 mice (n=3, each group). Tumor (A) and lymph nodes (B) tissues were harvested at 21 days post injection. Percentage of immune cell populations was determined by flow cytometry.
MOE/E6E7 cell clones expressing Cxcl14 (8 and 16) and one vector containing MOE/E6E7 cell clone were injected into the rear right flank of B6 mice (n=3, each group). Spleen was harvested at 21 days post injection and analyzed by flow cytometry. Relative abundance of Treg cells was determined using anti-CD4 and CD25 antibodies.
as §2, with “murine Cxcl14. To determine whether CXCL14 affects tumor growth in vivo, the inventors studied mouse oropharyngeal epithelial cells (MOE/E6E7) that form tumors in immunocompetent syngeneic C57BL/6 (B6) mice. […] To test tumor suppressor functions of CXCL14, the inventors established MOE/E6E7 cell lines that re-expressed their physiological levels of” for “murine”

[5] = system: myeloid-derived suppressor cells (MDSC); test: MDSC abundance by flow cytometry in tumor and spleen of Rag1-/- mice; format: in vivo, mouse; settings: mice injected with MOE/E6E7 cells re-expressing Cxcl14 vs empty vector, 23 days post injection
Experimental: MOE/E6E7 cell clones expressing Cxcl14 (8 and 16) and one vector containing MOE/E6E7 cell clone were injected into Rag1−/− mice (n=4, each group). Tumor (A) and spleen (B) were harvested at 23 days post injection, homogenized, and analyzed by flow cytometry. Relative abundance of MDSC cells (A & B) was determined using anti-MHCII, anti-Gr1, and anti-CD11b+ antibodies.
The chemokine receptors CXCR1 and CXCR2 are of primary importance for the migration of granulocytes to sites of inflammation. A recent study has shown that CXCR2 is also required for MDSC infiltration into tumors for cancer development. Additionally, blocking CXCR2-mediated MDSC infiltration enhances efficacy of anti-PD1 therapy. […] Thus, it is likely that CXCR2 ligands produced by HNSCC cells recruit MDSCs into the TME, and that CXCL14 expression interferes with IL-8 mediated MDSC infiltration. Thus, it will be verified that CXCL14 expression in HPV+ HNSCC cells reverses the immunosuppressive microenvironment by inhibiting Cxcr2-mediated MDSC expansion and infiltration. These experiments will determine novel mechanisms by which downregulation of CXCL14 triggers immune suppression in the TME.

| Molecule | MDSC elimination in tumor-bearing mice (MDSCs) | Tumor clearance (MOE/E6E7 cells [1]) | Migration of CD8+ T and NK cells to Cxcl14 expressing HNSCC cells ([2]; 12 hr incubation, compared to vector containing HNSCC cells) | Migration of macrophages and CD4+ T cells ([2]; CXCL14 expressing MOE/E6E7 cells, splenocytes from B6 mice) | Binding to IL-8 (IL-8) | Time to succumb to tumor burden (MOE/E6E7 cells [3]; Rag1-/- B6 mice injected with MOE/E6E7 cells re-expressing Cxcl14) | Tumor growth (MOE/E6E7 cells [3]; Rag1-/- mice injected with Cxcl14 expressing MOE/E6E7 cells) | Treg cells in spleens ([4]; B6 mice with tumors re-expressing Cxcl14, 21 days post injection) | Percentages of CD8+ T and NK cells in tumor tissues and TDLNs ([4]; wildtype B6 mice, 21 days after injection, vs vector containing cells) | MDSCs in tumors and spleens [5] |
| --- | --- | --- | --- | --- | --- | --- | --- | --- | --- | --- |
| Nc1ccn([C@@H]2O[C@H](CO)[C@@H](O)C2(F)F)c(=O)n1 [gemcitabine] | selectively eliminates MDSCs through apoptosis | – | – | – | – | – | – | – | – | – |
| B1 | – | a majority of B6 mice injected with MOE/E6E7 cells expressing Cxcl14 cleared tumors | 3-4 fold | little effect | directly binds to IL-8 | ≤ 32 days post injection | delayed tumor growth | significantly decreased | highly increased | significantly decreased |

From patent US20180311331A1, “PROGNOSIS AND TREATMENT OF SQUAMOUS CELL CARCINOMAS” (THE REGENTS OF THE UNIVERSITY OF COLORADO, a body corporate, priority 2015, published 2018)
